Measurements taken from patent US20130071405A1 (Eli Lilly, published 2013).

Experiments:
[1] = target: T1, hPCSK9 160-181 synthetic peptide (human); assay: binding kinetics to synthetic peptide, reference intact human PCSK9
T1 construct: Numbered on complete human PCSK9 including the twenty-eight amino acid signal peptide
T1 peptide: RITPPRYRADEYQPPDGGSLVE

[2] = target: T1, hPCSK9 160-181 synthetic peptide; assay: binding kinetics to synthetic peptide (method not named in Example 3)
[3] = target: T2, hPCSK9 166-181 synthetic peptide (human); assay: as above
T2 peptide: YRADEYQPPDGGSLVE

[4] = target: T3, hPCSK9 163-174 synthetic peptide (human); assay: as above
T3 peptide: PPRYRADEYQPP

Mouse PCSK9 = Mouse PCSK9 (mouse, UniProt Q80W65 35-694, limits assumed); assay: SPR, 25 C, n=3
Human PCSK9 = Human PCSK9 (human, UniProt Q8NBP7 31-692); assay: SPR, 37 C, physiological buffer, n=6, Avg ± SD
Rat PCSK9 = Rat PCSK9 (rat, UniProt P59996 31-691, limits assumed); assay: SPR, 25 C, n=2
[5] = target: Cyno PCSK9 (cynomolgus monkey); assay: SPR, 37 C, physiological buffer, n=4, Avg ± SD
mature hPCSK9 C-term His = target: T4, mature hPCSK9 C-term His (human, UniProt Q8NBP7 29-692); assay: binding kinetics (method not named in Example 3)
T4 construct: also called intact human PCSK9; intact PCSK9

[6] = target: T5, Recombinant full length PCSK9, C-terminal HIS-tagged (HEK 293 stable cell line) (human, UniProt Q8NBP7 31-692); assay: AlphaLISA, inhibition of PCSK9 (1 nM) binding to FLAG-tagged LDLR extracellular domain (1 nM)
T5 construct: also called C-terminal HIS-tagged recombinant human PCSK9; not shown: C-terminal HIS tag
T5 sequence (Q8NBP7 31-692 limits assumed): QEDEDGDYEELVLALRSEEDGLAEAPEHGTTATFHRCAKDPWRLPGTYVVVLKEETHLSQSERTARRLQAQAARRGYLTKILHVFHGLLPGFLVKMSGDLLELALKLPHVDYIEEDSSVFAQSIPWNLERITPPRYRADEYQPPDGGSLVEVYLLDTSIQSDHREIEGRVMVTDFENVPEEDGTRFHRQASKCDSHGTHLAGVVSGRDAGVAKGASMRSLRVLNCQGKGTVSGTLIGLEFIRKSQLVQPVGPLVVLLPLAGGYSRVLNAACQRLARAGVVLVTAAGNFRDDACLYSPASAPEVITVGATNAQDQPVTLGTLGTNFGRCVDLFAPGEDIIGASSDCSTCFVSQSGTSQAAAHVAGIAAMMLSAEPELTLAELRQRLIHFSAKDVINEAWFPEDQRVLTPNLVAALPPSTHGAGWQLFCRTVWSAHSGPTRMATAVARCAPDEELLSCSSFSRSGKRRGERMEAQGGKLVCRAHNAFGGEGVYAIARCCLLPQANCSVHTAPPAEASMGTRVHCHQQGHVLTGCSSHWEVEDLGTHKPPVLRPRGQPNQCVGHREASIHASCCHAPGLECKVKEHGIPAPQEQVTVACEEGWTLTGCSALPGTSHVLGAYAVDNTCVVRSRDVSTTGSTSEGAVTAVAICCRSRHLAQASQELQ

T4 sequence (Q8NBP7 other isoform, or with tags, fused parts or gaps limits assumed): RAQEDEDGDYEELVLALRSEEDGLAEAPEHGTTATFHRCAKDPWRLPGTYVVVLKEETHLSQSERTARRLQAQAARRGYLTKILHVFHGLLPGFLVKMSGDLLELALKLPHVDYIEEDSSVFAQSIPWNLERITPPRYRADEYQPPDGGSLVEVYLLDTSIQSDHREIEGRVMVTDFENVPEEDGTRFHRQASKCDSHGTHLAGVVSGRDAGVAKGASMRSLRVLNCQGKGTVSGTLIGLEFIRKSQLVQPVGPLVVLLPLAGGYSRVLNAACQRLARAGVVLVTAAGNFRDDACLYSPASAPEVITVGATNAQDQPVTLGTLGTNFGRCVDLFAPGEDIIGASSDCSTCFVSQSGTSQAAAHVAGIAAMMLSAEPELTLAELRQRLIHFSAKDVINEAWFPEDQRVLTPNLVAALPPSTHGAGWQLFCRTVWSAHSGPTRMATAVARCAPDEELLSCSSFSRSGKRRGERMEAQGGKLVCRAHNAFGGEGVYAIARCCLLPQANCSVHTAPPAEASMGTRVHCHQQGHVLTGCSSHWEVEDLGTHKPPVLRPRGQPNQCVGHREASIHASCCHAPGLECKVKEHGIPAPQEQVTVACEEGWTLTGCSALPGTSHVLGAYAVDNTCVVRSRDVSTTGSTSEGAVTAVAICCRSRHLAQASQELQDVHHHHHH
Chain of Human PCSK9 (Q8NBP7 31-692 limits assumed): as the sequence (Q8NBP7 31-692 limits assumed) above
Chain of Mouse PCSK9 (Q80W65 35-694 limits assumed): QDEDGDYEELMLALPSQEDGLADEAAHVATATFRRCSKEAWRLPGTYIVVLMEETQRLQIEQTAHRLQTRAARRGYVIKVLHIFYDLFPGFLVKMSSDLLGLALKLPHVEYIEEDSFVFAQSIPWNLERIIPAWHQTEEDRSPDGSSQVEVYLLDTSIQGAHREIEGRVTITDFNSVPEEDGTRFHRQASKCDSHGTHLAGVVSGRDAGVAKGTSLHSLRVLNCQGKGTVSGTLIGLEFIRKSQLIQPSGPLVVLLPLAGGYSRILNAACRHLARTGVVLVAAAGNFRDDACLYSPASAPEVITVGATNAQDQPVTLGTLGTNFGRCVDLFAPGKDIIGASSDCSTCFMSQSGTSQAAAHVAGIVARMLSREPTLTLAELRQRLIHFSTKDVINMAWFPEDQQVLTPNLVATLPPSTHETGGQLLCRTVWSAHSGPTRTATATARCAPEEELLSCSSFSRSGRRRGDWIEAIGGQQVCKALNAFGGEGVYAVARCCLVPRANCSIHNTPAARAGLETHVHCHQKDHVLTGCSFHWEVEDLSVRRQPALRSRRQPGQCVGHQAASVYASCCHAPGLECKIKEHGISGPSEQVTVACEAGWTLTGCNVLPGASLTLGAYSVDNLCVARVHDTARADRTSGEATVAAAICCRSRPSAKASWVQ
Chain of Rat PCSK9 (P59996 31-691 limits assumed): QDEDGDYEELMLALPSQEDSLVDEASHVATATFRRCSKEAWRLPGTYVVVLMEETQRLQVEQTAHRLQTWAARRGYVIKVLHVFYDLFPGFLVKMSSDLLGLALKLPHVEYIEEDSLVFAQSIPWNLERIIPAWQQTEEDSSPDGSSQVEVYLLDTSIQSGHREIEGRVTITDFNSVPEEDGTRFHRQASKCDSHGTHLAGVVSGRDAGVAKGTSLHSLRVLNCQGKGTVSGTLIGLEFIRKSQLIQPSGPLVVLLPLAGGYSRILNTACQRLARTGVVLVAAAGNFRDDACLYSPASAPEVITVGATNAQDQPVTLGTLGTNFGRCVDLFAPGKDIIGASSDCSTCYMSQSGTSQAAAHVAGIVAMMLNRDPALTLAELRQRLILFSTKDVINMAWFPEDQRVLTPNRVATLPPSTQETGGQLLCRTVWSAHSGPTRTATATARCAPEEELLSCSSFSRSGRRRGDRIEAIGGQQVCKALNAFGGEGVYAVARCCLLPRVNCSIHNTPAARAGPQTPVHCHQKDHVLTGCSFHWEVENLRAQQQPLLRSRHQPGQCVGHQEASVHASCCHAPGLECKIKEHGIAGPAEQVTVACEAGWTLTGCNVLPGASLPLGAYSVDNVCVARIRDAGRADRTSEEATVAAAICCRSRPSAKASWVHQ

koff fold difference against intact PCSK9 [1]: ≤ 2 fold
Kd [2]: 0.17 nM
koff [2]: 0.000242 s⁻¹
kon [2]: 1.45e+06 M⁻¹ s⁻¹
Kd [3]: 34 nM
koff [3]: 0.156 s⁻¹
kon [3]: 4.58e+06 M⁻¹ s⁻¹
Kd [4]: 3 nM
koff [4]: 0.00831 s⁻¹
kon [4]: 2.75e+06 M⁻¹ s⁻¹
binding result (Mouse PCSK9): no binding
Kd (Human PCSK9): 11 nM
koff (Human PCSK9): 0.0012 s⁻¹
kon (Human PCSK9): 120000 M⁻¹ s⁻¹
binding result (Rat PCSK9): no binding
Kd [5]: 25 nM
koff [5]: 0.0025 s⁻¹
kon [5]: 110000 M⁻¹ s⁻¹
Kd (mature hPCSK9 C-term His): 1.8 nM
koff (mature hPCSK9 C-term His): 0.00015 s⁻¹
kon (mature hPCSK9 C-term His): 86700 M⁻¹ s⁻¹
IC50 [6]: ~0.09 nM
B1: engineered PCSK9 antibody of Example 1 (antibody, human IgG4 S228P, kappa, F234A L235A, V domains shown)
VH: EVQLVESGGGLVKPGGSLRLSCAASGFPFSKLGMVWVRQAPGKGLEWVSTISSGGGYTYYPDSVKGRFTISRDNAKNSLYLQMNSLRAEDTAVYYCAREGISFQGGTYTYVMDYWGQGTLVTVSS
VL: DIVMTQSPLSLPVTPGEPASISCRSSKSLLHRNGITYSYWYLQKPGQSPQLLIYQLSNLASGVPDRFSGSGSGTDFTLKISRVEAEDVGVYYCYQNLELPLTFGQGTKVEIKR
notes: the controls used are IgG4; also called test PCSK9 antibody
